In this experiment the target is binding of human apoA-1 to isolated human MPO (Homo sapiens, UniProt P05164). Nature of the experiment: Binding of human apoA-1 to plate-bound MPO in the presence of peptide. To be noted: isolated human MPO bound to wells of a 96 well plate; apoA-1 binding determined in presence of peptide; FIG. 9. As to the method: Isolated human MPO was bound to the wells in a 96 well plate and then the binding of human apoA-1 to the MPO was determined in the presence of a peptide comprising the sequence N-Ac-(L) AEYHAKATEHLSTL, SEQ ID NO: 2 (also known as the L-ApoA-MPO peptide), a sequence comprising SEQ ID NO: 2 and D amino acids, also known as the D-apoA-MPO peptide, and a peptide comprising the sequence, N-Ac (L) KHETHSLAYAAET, SEQ ID NO: 4.
Chain of binding of human apoA-1 to isolated human MPO (P05164 279-745 limits assumed): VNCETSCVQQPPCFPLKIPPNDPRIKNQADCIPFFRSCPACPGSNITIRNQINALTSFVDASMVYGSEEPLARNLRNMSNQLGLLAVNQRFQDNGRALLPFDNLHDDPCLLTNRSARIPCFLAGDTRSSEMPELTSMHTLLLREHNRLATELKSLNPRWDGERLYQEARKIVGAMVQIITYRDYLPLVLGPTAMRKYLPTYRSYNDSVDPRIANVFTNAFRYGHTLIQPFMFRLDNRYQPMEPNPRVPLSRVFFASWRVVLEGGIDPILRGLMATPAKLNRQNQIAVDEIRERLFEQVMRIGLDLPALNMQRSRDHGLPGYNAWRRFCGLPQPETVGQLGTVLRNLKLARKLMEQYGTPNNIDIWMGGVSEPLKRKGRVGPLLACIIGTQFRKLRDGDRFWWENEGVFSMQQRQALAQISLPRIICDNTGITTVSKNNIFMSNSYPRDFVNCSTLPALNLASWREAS
Chain of binding of human apoA-1 to isolated human MPO (P05164 165-278 limits assumed): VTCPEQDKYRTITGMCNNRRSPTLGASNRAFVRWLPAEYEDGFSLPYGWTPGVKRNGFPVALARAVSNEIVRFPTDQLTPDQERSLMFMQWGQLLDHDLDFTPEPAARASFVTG

This note sets out measurements from patent US7776563B2, “Methods for identifying agents for treating cardiovascular disease using inhibition of myeloperoxidase binding” (The Cleveland Clinic Foundation, priority 2004, dated 2010).

Ends that are not written are not given here.

Turning to “N-Ac (L) KHETHSLAYAAET (Ac-KHETHSLAYAAET; listed as Homo sapiens) [SEQ ID NO: 4, reference compound]”, the “effect on binding of apo A-1 to MPO” value was “had no effect on MPO-apoA-1 binding”.

Take “D-apoA-MPO peptide: a sequence comprising SEQ ID NO: 2 (AEYHAKATEHLSTL) and D amino acids (also: D amino acids (positions not given here); listed as Homo sapiens)”: the “effect on binding of apo A-1 to MPO” value is recorded as “inhibited binding of apo A-1 to MPO”.

As to “N-Ac-(L) AEYHAKATEHLSTL (Ac-AEYHAKATEHLSTL; listed as Homo sapiens) [L-ApoA-MPO peptide]”, the “effect on binding of apo A-1 to MPO” value is recorded as “inhibited binding of apo A-1 to MPO”.
